Molecular target: the molecule itself
Experiment: SEC; 1 mg of ntcNDCBE on Superdex 200 10/300 GL; eluted at 14.2 mL, compared with molecular weight standards

B1: truncated (ΔVR1) N-terminal cytoplasmic domain of human sodium-driven chloride/bicarbonate exchanger NDCBE-D (domain or fragment, UniProt Q2Y0W8-4 40-344, looked up)
chain: DTPSQRVQFILGTEEDEEHVPHELFTELDEICMKEGEDAEWKETARWLKFEEDVEDGGERWSKPYVATLSLHSLFELRSCLINGTVLLDMHANSIEEISDLILDQQELSSDLNDSMRVKVREALLKKHHHQNEKKRNNLIPIVRSFAEVGKKQSDPHLMDKHGQTVSPQSVPTTNLEVKNGVNCEHSPVDLSKVDLHFMKKIPTGAEASNVLVGEVDILDRPIVAFVRLSPAVLLSGLTEVPIPTRFLFILLGPVGKGQQYHEIGRSMATIMTDEIFHDVAYKAKERDDLLAGIDEFLDQVTVLP
notes: human NDCBE (SLC4A8) isoform D, N-terminal cytoplasmic core domain, amino acids 40-344 (made by mutagenesis from the 40-425 construct); numbers count on: isoform D (Q2Y0W8-4); Forms a homodimer in the crystal and in solution; Codon-optimised gene in pET-M11; His tag removed with TEV protease; also called ntcNDCBE; regulatory N-terminal domain of human NDCBE; source: E. coli BL21 Gold, purified …
- stoichiometry N: 2

Source: PMC5608694, “The crystal structure of the regulatory domain of the human sodium-driven chloride/bicarbonate exchanger” (Scientific Reports, 2017)
